Measured values taken from the supplement of paper PMC11246515.
± gives the standard deviation of the averaged measurements.

Test: total protein half-life in vivo (active degradation + dilution); higher = more stable protein
[1] = E. coli NCM3722 delta-clpP delta-lon delta-hslV, growth: N-lim chemostat, doubling time 6 h
[2] = E. coli NCM3722 delta-clpP, growth: N-lim chemostat, doubling time 6 h
[3] = E. coli NCM3722 delta-hslV, growth: N-lim chemostat, doubling time 6 h
[4] = E. coli NCM3722 delta-lon, growth: N-lim chemostat, doubling time 6 h
[5] = E. coli NCM3722 delta-smpB, growth: N-lim chemostat, doubling time 6 h
[6] = wild type E. coli NCM3722, growth: C-lim chemostat, doubling time 3 h
[7] = wild type E. coli NCM3722, growth: C-lim chemostat, doubling time 6 h
[8] = wild type E. coli NCM3722, growth: C-lim chemostat, doubling time 12 h
[9] = wild type E. coli NCM3722, growth: N-lim chemostat, doubling time 6 h
[10] = wild type E. coli NCM3722, growth: N-lim chemostat, doubling time 12 h
[11] = wild type E. coli NCM3722, growth: P-lim chemostat, doubling time 6 h
[12] = wild type E. coli NCM3722, growth: P-lim chemostat, doubling time 12 h

Row | Sequence | total protein half-life in vivo [1] | total protein half-life in vivo [2] | total protein half-life in vivo [3] | total protein half-life in vivo [4] | total protein half-life in vivo [5] | total protein half-life in vivo [6] | total protein half-life in vivo [7] | total protein half-life in vivo [8] | total protein half-life in vivo [9] | total protein half-life in vivo [10] | total protein half-life in vivo [11] | total protein half-life in vivo [12]
1 | MSLWKKISLGVVIVILLLLGSVAFLVGTTSGLHLVFKAADRWVPGLDIGKVTGGWRDLTLSDVRYEQPGVAVKAGNLHLAVGLECLWNSSVCINDLALKDIQVNIDSKKMPPSEQVEEEEDSGPLDLSTPYPITLTRVALDNVNIKIDDTTVSVMDFTSGLNWQEKTLTLKPTSLKGLLIALPKVAEVAQEEVVEPKIENPQPDEKPLGETLKDLFSRPVLPEMTDVHLPLNLNIEEFKGEQLRVTGDTDITVSTMLLKVSSIDGNTKLDALDIDSSQGIVNASGTAQLSDNWPVDITLNSTLNVEPLKGEKVKLKMGGALREQLEIGVNLSGPVDMDLRAQTRLAEAGLPLNVEVNSKQLYWPFTGEKQYQADDLKLKLTGKMTDYTLSMRTAVKGQEIPPATITLDAKGNEQQVNLDKLTVAALEGKTELKALLDWQQAISWRGELTLNGINTAKEFPDWPSKLNGLIKTRGSLYGGTWQMDVPELKLTGNVKQNKVNVDGTLKGNSYMQWMIPGLHLELGPNSAEVKGELGVKDLNLDATINAPGLDNALPGLGGTAKGLVKVRGTVEAPQLLADITARGLRWQELSVAQVRVEGDIKSTDQIAGKLDVRVEQISQPDVNINLVTLNAKGSEKQHELQLRIQGEPVSGQLNLAGSFDRKEERWKGTLSNTRFQTPVGPWSLTRDIALDYRNKEQKISIGPHCWLNPNAELCVPQTIDAGAEGRAVVNLNRFDLAMLKPFMPETTQASGIFTGKADVAWDTTKEGLPQGSITLSGRNVQVTQTVNDAALPVAFQTLNLTAELRNNRAELGWTIRLTNNGQFDGQVQVTDPQGRRNLGGNVNIRNFNLAMINPIFTRGEKAAGMVSANLRLGGDVQSPQLFGQLQVTGVDIDGNFMPFDMQPSQLAVNFNGMRSTLAGTVRTQQGEIYLNGDADWSQIENWRARVTAKGSKVRITVPPMVRMDVSPDVVFEATPNLFTLDGRVDVPWARIVVHDLPESAVGVSSDVVMLNDNLQPEEPKTASIPINSNLIVHVGNNVRIDAFGLKARLTGDLNVVQDKQGLGLNGQINIPEGRFHAYGQDLIVRKGELLFSGPPDQPYLNIEAIRNPDATEDDVIAGVRVTGLADEPKAEIFSDPAMSQQAALSYLLRGQGLESDQSDSAAMTSMLIGLGVAQSGQIVGKIGETFGVSNLALDTQGVGDSSQVVVSGYVLPGLQVKYGVGIFDSIATLTLRYRLMPKLYLEAVSGVDQALDLLYQFEF | 5.88 ± 0.49 h | 6.03 ± 0.44 h | 6.95 ± 0.39 h | 6.374 ± 0.041 h | 5.69 ± 0.29 h | 3.04 ± 0.044 h | 5.97 ± 0.5 h | 11.7 ± 1.2 h | 6.2514 ± 0.0027 h | 12.1 ± 0.24 h | 5.992 ± 0.026 h | 12.22 ± 0.066 h
2 | MSMSHINYNHLYYFWHVYKEGSVVGAAEALYLTPQTITGQIRALEERLQGKLFKRKGRGLEPSELGELVYRYADKMFTLSQEMLDIVNYRKESNLLFDVGVADALSKRLVSSVLNAAVVEGEPIHLRCFESTHEMLLEQLSQHKLDMIISDCPIDSTQQEGLFSVRIGECGVSFWCTNPPPEKPFPACLEERRLLIPGRRSMLGRKLLNWFNSQGLNVEILGEFDDAALMKAFGAMHNAIFVAPTLYAYDFYADKTVVEIGRVENVMEEYHAIFAERMIQHPAVQRICNTDYSALFSPAVR [P0A9G2] | 6.03 ± 0.4 h | 6.18 h | 4.38 h | 5.99 ± 1.4 h | 5.21 ± 0.34 h | – | 5.51 h | 9.31 h | 5.76 ± 1.2 h | – | 4.93 ± 1.5 h | 10.2 h
3 | MSNAITMGIFWHLIGAASAACFYAPFKKVKKWSWETMWSVGGIVSWIILPWAISALLLPNFWAYYSSFSLSTRLPVFLFGAMWGIGNINYGLTMRYLGMSMGIGIAIGITLIVGTLMTPIINGNFDVLISTEGGRMTLLGVLVALIGVGIVTRAGQLKERKMGIKAEEFNLKKGLVLAVMCGIFSAGMSFAMNAAKPMHEAAAALGVDPLYVALPSYVVIMGGGAIINLGFCFIRLAKVKDLSLKADFSLAKSLIIHNVLLSTLGGLMWYLQFFFYAWGHARIPAQYDYISWMLHMSFYVLCGGIVGLVLKEWNNAGRRPVTVLSLGCVVIIVAANIVGIGMAN | – | – | – | – | – | – | – | – | – | 7.44 h | – | –
4 | MSNAQEAVKTRHKETSLIFPVLALVVLFLWGSSQTLPVVIAINLLALIGILSSAFSVVRHADVLAHRLGEPYGSLILSLSVVILEVSLISALMATGDAAPTLMRDTLYSIIMIVTGGLVGFSLLLGGRKFATQYMNLFGIKQYLIALFPLAIIVLVFPMALPAANFSTGQALLVALISAAMYGVFLLIQTKTHQSLFVYEHEDDSDDDDPHHGKPSAHSSLWHAIWLIIHLIAVIAVTKMNASSLETLLDSMNAPVAFTGFLVALLILSPEGLGALKAVLNNQVQRAMNLFFGSVLATISLTVPVVTLIAFMTGNELQFALGAPEMVVMVASLVLCHISFSTGRTNVLNGAAHLALFAAYLMTIFA | – | > 8 h | – | – | 6.69 h | – | – | > 16 h | – | – | 6.87 h | –
5 | MSNILIINGAKKFAHSNGQLNDTLTEVADGTLRDLGHDVRIVRADSDYDVKAEVQNFLWADVVIWQMPGWWMGAPWTVKKYIDDVFTEGHGTLYASDGRTRKDPSKKYGSGGLVQGKKYMLSLTWNAPMEAFTEKDQFFHGVGVDGVYLPFHKANQFLGMEPLPTFIANDVIKMPDVPRYTEEYRKHLVEIFG [P0AEY5] | – | 1.93 ± 0.14 h | 1.94 ± 0.091 h | 2.18 ± 0.044 h | 2.27 ± 0.32 h | 3.31 ± 0.43 h | 4.76 ± 0.2 h | 6.6 ± 0.75 h | 2.12 ± 0.18 h | – | – | 8.32 ± 0.26 h
6 | MSNITIYHNPACGTSRNTLEMIRNSGTEPTIIHYLETPPTRDELVKLIADMGISVRALLRKNVEPYEELGLAEDKFTDDRLIDFMLQHPILINRPIVVTPLGTRLCRPSEVVLEILPDAQKGAFSKEDGEKVVDEAGKRLK [P0AB96] | 6.69 ± 0.8 h | 5.24 h | – | – | 3.72 h | – | 6.14 ± 0.37 h | 8.79 ± 1.4 h | 3.41 ± 1.2 h | 6.1 h | 5.09 h | 9.63 ± 0.02 h
